Article PMC3383001 (Cell, 2012)

B1: His-SUN2(335–717), luminal domain of human SUN2 (predicted coiled-coil regions and SUN domain) (domain or fragment, UniProt Q9UH99 335-717, looked up)
chain: LVSRREAALKEDFRRETAARIQEELSALRAEHQQDSEDLFKKIVRASQESEARIQQLKSEWQSMTQESFQESSVKELRRLEDQLAGLQQELAALALKQSSVAEEVGLLPQQIQAVRDDVESQFPAWISQFLARGGGGRVGLLQREEMQAQLRELESKILTHVAEMQGKSAREAAASLSLTLQKEGVIGVTEEQVHHIVKQALQRYSEDRIGLADYALESGGASVISTRCSETYETKTALLSLFGIPLWYHSQSPRVILQPDVHPGNCWAFQGPQGFAVVRLSARIRPTAVTLEHVPKALSPNSTISSAPKDFAIFGFDEDLQQEGTLLGKFTYDQDGEPIQTFHFQAPTMATYQVVELRILTNWGHPEYTCIYRFRVHGEPAH
B2: SUN2(522–717), minimal SUN domain of human SUN2 used for crystallography (domain or fragment, UniProt Q9UH99 522-717, looked up)
chain: GVTEEQVHHIVKQALQRYSEDRIGLADYALESGGASVISTRCSETYETKTALLSLFGIPLWYHSQSPRVILQPDVHPGNCWAFQGPQGFAVVRLSARIRPTAVTLEHVPKALSPNSTISSAPKDFAIFGFDEDLQQEGTLLGKFTYDQDGEPIQTFHFQAPTMATYQVVELRILTNWGHPEYTCIYRFRVHGEPAH
B3: KASH2 peptide (Nesprin-2, residues 6857–6885) co-expressed with SUN2(522–717) (peptide)
peptide: not shown
B4: KASH1 peptide (Nesprin-1, residues 8769–8797) co-expressed with SUN2(522–717) (peptide)
peptide: not shown

What was measured:
AUC = molecular target: the molecule itself; experiment: AUC
crystal structure = molecular target: the molecule itself; experiment: crystal structure
[1] = molecular target: B2; experiment: crystal structure
[2] = molecular target: B2; experiment: crystal structure; remark: listed apart in the source

B1
stoichiometry N (AUC): 3

B2
stoichiometry N (crystal structure): 3

B3
stoichiometry N [1]: 3 KASH2 peptides per SUN2 trimer

B4
binding result [2]: binds
